We go through one molecule from paper PMC5335568, “Molecular basis for the role of oncogenic histone mutations in modulating H3K36 methylation” (Scientific Reports, 2017).

The target in this test is T1, SET domain of human SETD2 (residue 1435–1711, encompassing the AWS, SET, and post-SET regions) (human, UniProt Q9BYW2 1435-1711).
T1 construct: SETD2, human, residues 1435–1711 (AWS, SET and post-SET regions), in the pET28-MHL vector; The His-tag was not removed for crystallization; A longer construct (1347–1711, 6xHis, Talon beads) was used for the histone methyltransferase assays; also called SETD2 SET domain; recombinant SET domain of SETD2; not shown: His6, N-terminal, kept
T1 sequence (looked up): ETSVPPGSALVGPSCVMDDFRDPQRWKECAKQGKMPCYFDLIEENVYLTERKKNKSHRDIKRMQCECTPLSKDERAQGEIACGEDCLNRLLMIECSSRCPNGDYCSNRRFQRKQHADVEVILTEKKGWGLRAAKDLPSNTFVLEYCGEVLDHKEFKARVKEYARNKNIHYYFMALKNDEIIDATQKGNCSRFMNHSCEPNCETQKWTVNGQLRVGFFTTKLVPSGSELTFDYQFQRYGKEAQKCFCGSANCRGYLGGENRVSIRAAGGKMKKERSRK
In words: crystal structure; SETD2 (10 mg/ml) incubated with SAM and H3K36M peptide at a molar ratio of 1:10:10; sitting drop, 20 °C, 0.1 M KSCN, 24% PEG 2000 MME; two ternary complexes, with SAM (2.42 Å) and with SAH (2.4 Å). The following applies: both partners purified.

B1: H3K36M peptide (29-APATGGVMKPHRYRP-43) (peptide)
peptide: APATGGVMKPHRYRP
notes: histone H3 tail, residues 29–43, with K36M; also called H3K36M (29–43) peptide; source: synthetic peptide (Eurogentec for the crystals; Anaspec for the thermal shift assay)
In the case of B1, the binding result is given as “binds”.
